According to publication PMC3257806 (Nature Cell Biology, 2011):

Legend:
GST-SHARPIN = target: T1, GST-SHARPIN (Homo sapiens, UniProt Q9H0F6); assay type: binding; conditions: 2.5 μM biotinylated peptide on streptavidin-sepharose beads; Western blot
T1 sequence (Q9H0F6 1-387): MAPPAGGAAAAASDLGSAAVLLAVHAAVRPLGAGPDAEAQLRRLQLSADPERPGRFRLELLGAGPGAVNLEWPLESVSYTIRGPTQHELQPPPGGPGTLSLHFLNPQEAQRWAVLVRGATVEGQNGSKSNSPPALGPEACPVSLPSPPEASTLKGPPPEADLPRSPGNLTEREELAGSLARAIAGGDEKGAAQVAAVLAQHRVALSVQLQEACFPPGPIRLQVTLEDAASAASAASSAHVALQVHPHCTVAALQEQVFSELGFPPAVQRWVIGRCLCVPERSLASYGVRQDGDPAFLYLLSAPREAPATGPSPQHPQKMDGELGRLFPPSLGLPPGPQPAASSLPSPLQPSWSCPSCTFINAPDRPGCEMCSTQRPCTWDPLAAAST

[1] = target: EDANS-labelled wild-type α2-peptide (α2-wt); experiment: fluorescence polarisation

“β1-tail: peptide of the cytoplasmic domain of β1-integrin, biotinylated or unlabelled” was tested, and the “interaction of recombinant GST-SHARPIN with biotinylated peptide (pull-down)” value (GST-SHARPIN) was “did not interact”.

B1: recombinant GST-SHARPIN (natural protein)
chain: T1 sequence (Q9H0F6 1-387)
A Kd [1] of 26 µM was found for B1 in this work.
